Source: patent US20160003839A1 (NATIONAL UNIVERSITY OF IRELAND GALWAY, published 2016)

The binders below were run against T1, Gal-α-(1→3)-Gal target of the SPR experiment (ligand on the chip not stated) (assay: SPR (BIAcore), Kd from kon and koff; ligand on the chip not stated).
T1 construct: also called target glycan
Protocol: Dissociation constants (Kd) for the scFvs were calculated from the measured association (kon) and dissociation (koff) rate constants by using surface plasmon resonance (SPR) BIAcore instrumentation and software (GE).

| Binder | Kd [nM] |
| --- | --- |
| scFv-G12 (scFv, Chicken scFv (VL-linker-VH), expressed soluble in E. coli; It recognises the Gal-α-(1→3)-Gal glycan) scFv: QAALTQPSSVSANPGETVKITCSGGSYHYGWYQQKSPGSAPVTVIYSNNQRPSGIPSRFSGSTSDSTGTLTITGVQADDEAVYFCGSYDSSNTYAGIFGAGTTLTVLGQSSRSSSGGGSSGGGGSAVTLDESGGGFQTPGGALSLVCKASGFTFSSYSMQWVRQAPGKGLEFVAGIGNSDRYTYFGPAVKGRATISRDNGQSTLRLQLNNLRAEDTATYFCARSGDSGNGCTHPWCSADNINAWGHGTEVIVSSTSGQAGQ | 18 |
| scFv-A4 (scFv, Chicken scFv (VL-linker-VH) from a pComb3 phage library, expressed soluble in E. coli; It recognises the Gal-α-(1→3)-Gal glycan, not a protein surface) scFv: QAALTQPSSVSTNPGGTVKITCSGGNGNYGWYQQKSPGSAPVTVIYSNNKRPSDIPSRFSGSKSGSTATLTITGVQVDDEAVYFCGAYDNTYVGVFGAGTTLTVLGQSSRSSSGGGSSGGGGSAVTLDESGGGLQTPGGGLSLVCKASGFTFSSYSMQWVRQTPGKGLEFVAGIGYSDSYTYFGPAVKGRATISRDNGQNTVRLQLNNLRAEDTATYYCARSADTIYGCTHPWCSADNIDAWGHGTEVIVSSTSGQAGQ | 57.3 |
| scFv-A11 (scFv, Chicken scFv (VL-linker-VH), expressed soluble in E. coli; It recognises the Gal-α-(1→3)-Gal glycan) scFv: QAALTQPSSVSANPGETVKITCSGGGSYGGSYYYGWYQQKSPGSAPVTVIYSNDNRPSDIPSRFSGSTSGSTSTLTITGVQVDDEAVYYCGTYDSSYVGIFGAGTALTVLGQSSRSSGGGSSGGGGSAVTLDESGGGLQTPGGGLSLVCKASGFTFSSYSMQWVRQTPGKGLEFVAGIGYSDSYTYFGPAVKGRATISRDNGQNTVRLQLNNLRAEDTATYYCARSADTIYGCTHPWCSADNIDAWGHGTEVIVSSTSGQAGQ | 8.04 |
